Test results as given in IntAct's records for PubMed 17451412.

Experiments:
wasl_rat Wasl = wasl_rat Wasl (UniProt O08816)
tir_eco57 tir = tir_eco57 tir (UniProt Q7DB77)
Sequence of tir_eco57 tir (Q7DB77 whole entry): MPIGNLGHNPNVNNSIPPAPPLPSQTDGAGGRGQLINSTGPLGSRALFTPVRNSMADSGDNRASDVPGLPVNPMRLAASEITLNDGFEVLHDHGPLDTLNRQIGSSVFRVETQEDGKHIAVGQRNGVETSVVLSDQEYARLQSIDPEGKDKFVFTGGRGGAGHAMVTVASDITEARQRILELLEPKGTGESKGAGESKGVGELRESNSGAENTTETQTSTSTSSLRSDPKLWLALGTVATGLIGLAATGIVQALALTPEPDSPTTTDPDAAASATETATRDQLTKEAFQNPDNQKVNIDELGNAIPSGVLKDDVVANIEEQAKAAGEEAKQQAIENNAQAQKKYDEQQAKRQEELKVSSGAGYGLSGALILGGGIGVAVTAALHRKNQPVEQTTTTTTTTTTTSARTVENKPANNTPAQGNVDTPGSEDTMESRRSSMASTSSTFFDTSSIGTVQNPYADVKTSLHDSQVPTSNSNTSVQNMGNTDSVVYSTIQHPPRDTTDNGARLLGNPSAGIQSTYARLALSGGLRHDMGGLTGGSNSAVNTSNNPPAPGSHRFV

Sequence of wasl_rat Wasl (O08816 whole entry): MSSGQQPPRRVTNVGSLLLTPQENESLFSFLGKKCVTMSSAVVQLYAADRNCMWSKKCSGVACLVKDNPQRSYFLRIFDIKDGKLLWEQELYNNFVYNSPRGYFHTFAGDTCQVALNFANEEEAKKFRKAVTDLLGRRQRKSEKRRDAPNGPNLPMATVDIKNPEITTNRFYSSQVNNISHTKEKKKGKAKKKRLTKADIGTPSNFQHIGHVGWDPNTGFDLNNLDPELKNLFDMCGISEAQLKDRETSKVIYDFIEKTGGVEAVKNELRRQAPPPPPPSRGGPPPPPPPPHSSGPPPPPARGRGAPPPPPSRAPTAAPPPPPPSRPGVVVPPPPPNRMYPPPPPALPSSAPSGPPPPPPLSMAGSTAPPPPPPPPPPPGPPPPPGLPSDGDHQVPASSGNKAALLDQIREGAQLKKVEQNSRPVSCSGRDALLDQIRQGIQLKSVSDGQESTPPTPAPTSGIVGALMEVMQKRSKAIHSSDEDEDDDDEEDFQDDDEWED
Sequence of Src substrate cortactin (Mus musculus), Q60598 Y421D;Y466D (Q60598 whole entry Y421D/Y466D): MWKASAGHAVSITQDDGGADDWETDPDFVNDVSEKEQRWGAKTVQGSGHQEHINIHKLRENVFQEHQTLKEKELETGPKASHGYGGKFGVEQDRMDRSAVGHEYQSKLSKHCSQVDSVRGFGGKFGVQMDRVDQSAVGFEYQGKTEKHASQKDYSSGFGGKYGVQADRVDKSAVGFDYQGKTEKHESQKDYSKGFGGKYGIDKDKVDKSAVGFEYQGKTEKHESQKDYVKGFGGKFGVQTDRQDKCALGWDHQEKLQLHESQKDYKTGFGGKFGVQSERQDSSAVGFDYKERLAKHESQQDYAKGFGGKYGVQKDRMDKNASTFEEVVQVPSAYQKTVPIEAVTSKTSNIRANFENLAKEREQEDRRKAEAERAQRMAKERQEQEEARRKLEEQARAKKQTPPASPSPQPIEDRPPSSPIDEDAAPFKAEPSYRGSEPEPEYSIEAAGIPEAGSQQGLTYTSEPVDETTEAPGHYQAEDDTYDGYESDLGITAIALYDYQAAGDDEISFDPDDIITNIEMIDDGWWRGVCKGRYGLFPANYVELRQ
Sequence of Src substrate cortactin (Mus musculus), Q60598 S405D;S418D (Q60598 whole entry S405D/S418D): as the sequence (Q60598 whole entry Y421D/Y466D) above, with S405D, S418D, D421Y, D466Y counted along it
Sequence of Src substrate cortactin (Mus musculus), Q60598 W525K (Q60598 whole entry W525K): as the sequence (Q60598 whole entry Y421D/Y466D) above, with D421Y, D466Y, W525K counted along it

Substance	effect of a mutation on the interaction (wasl_rat Wasl)	effect of a mutation on the interaction (tir_eco57 tir)
Src substrate cortactin (Mus musculus), Q60598 W525K	with no effect	
Src substrate cortactin (Mus musculus), Q60598 Y421D;Y466D	increasing interaction	increasing interaction
Src substrate cortactin (Mus musculus), Q60598 S405D;S418D	disrupting interaction	with no effect
